Where no end group is shown, it is not given here. [ ]: non-standard residue; d: D form. code J = not defined here
How the values were obtained:
C*02:02 [1] = target: T1, C*02:02 (Homo sapiens, UniProt P10321, A176E/A235T/A330V/A97T/C350S/D114A/D33Y/G40S/L171W/L180W/L218V/M285V/M309V/M331V/N104K/P208H/Q277E/Q291P/R45H/S101N/S123Y/S297R/S48A/T187E/T329A/T363A/V319A); experiment: ELISA of small scale MHCI refold (anti-HLA W6/32 capture, anti-B2M detection); assay type: binding; conditions: for S/N ELISA value: C*02:02, 1.0 μg/mL MHCI, no peptide control as background; for normalized ELISA OD: C*02:02, 1 μg/mL MHCI, normalized to no peptide control
Experimental: Recombinant HLA alleles and B2M were over-expressed in E. coli, purified from inclusion bodies, and stored under denaturing conditions (6M Guanidine HCL, 25 mM Tris pH 8) in −80° C. as described above. In a 200 μL reaction, the peptide (0.01 mM, per well), oxidized and reduced glutathione (0.5 mM and 4.0 mM, respectively), recombinant HLA alleles (0.03 mg/mL) and B2M (0.01 mg/mL) were all combined within a 96-well plate. Refold screens were performed with five different peptides for each HLA of interest as described above (Table 3). and the MHCI complex was incubated at 4° C. for 3-5 days to allow refolding. Refolded samples were analyzed by ELISA, and the highest performing peptide was selected for further analysis. All data was analyzed relative to the negative control refold, which was performed in the absence of peptide (labeled NP). HLA-A*02:01 refolded with the CMV pp65 viral epitope was used as a positive control. […]
(§1) A 384-well Nunc Maxisorp plate (ThermoFisher Scientific, Waltham, MA) was coated with 25 μL/well of mouse IgG2a anti-HLA ABC clone W6/32 (Novus Biological, Littleton, Co.) at 8 μg/mL in coating buffer (0.05 sodium carbonate pH 9.6). After overnight incubation at 4° C., the plate was washed 3 times with wash buffer (PBS, 0.5% Tween 20). The plate was then blocked with 50 μL/well of Block buffer (PBS, 0.5% BSA, 10 ppm Proclin) and incubated at room temperature (RT) with agitation for 1 hour. […] The plate was washed six times and 25 IL of biotinylated mouse IgG1 anti-human B2M (BioLegend, San Diego, CA) at 100 ng/mL in assay diluent was added to each well. After a 1 hour incubation at RT and six washes, 25 μL/well of Streptavidin-Horseradish Peroxidase (GE, Marlborough, MA) was added to the plate and incubated for 30 min at RT. The color reaction was developed with TMB peroxidase substrate (Moss, Pasadena, MD) at RT for 15 min, and the reaction was stopped with 1M phosphoric acid. The absorbance was measured at a wavelength of […] with a reference at 620 nm. Refolded MHC monomers without peptide or irrelevant peptide were used as the negative controls for each allele to normalize the signal.
(§2) Recombinant HLA alleles and B2M were over-expressed in E. coli, purified from inclusion bodies, and stored under denaturing conditions (6M Guanidine HCl, 25 mM Tris pH 8) in −80° C. as described above. In a 200 μL reaction, the peptide (0.01 mM, per well), oxidized and reduced glutathione (0.5 mM and 4.0 mM, respectively), recombinant HLA alleles (0.03 mg/mL) and B2M (0.01 mg/mL) were all combined in a 96-well plate. Refolds were performed with five different peptides for each HLA of interest as described above (Table 3), and the MHCI complex was incubated at 4° C. for 3-5 days to allow refolding. MHCI complex refolds were also performed in the absence of a peptide and used as the negative control to calculate the signal to noise (S/N) for the experimental peptides. Given that there should have been minimal properly refolded complex in the absence of a peptide, these samples provided the overall background of the assay to calculate the S/N value. HLA-A*02:01 refolded with the CMV pp65 viral epitope was used as a positive control. Peptides yielding the highest signal to noise ratio (S/N) were selected for further analysis.
Two different ELISA assays were evaluated to optimize the sensitivity of the assay. In the first assay format, the refolded MHCI was captured with anti-B2M antibody and detected with pan ABC anti-HLA antibody (clone W6/32). In the second assay format, MHCI was captured with the pan ABC anti-HLA antibody (clone W6/32) and detected with the anti-B2M antibody. In both assays, a 384-well Nunc Maxisorp plate (Thermo Fisher Scientific, Waltham, MA) was coated with 25 μL/well of capture antibody, mouse IgG1 anti-human B2M (BioLegend, San Diego, CA) or mouse IgG2a anti-HLA ABC clone W6/32 (Novus Biological, Littleton, Co.), at 8 μg/mL in coating buffer (0.05 sodium carbonate pH 9.6). […]

C*02:02 [2] = target: T1, C*02:02; conditions: IEDB value, cellular MHC/mass spectrometry; cited from earlier work
C*14:02 = C*14:02 (Homo sapiens, UniProt P10321, A176E/A330V/A35S/A97T/C350S/D114A/D33S/L171W/L180R/L218V/M285V/M309V/M331V/P208H/Q277E/Q291P/R121W/R243W/S123F/S297R/S48A/T329A/T363A/V319A); conditions: IEDB value, purified MHC/direct/fluorescence, read-out: dissociation constant KD; cited from earlier work
B*18:01 = B*18:01 (Homo sapiens, UniProt P01889, A329T/A93T/A95T/C349S/D201E/D54G/D98Y/E176V/E187T/E204Q/E69T/K202T/Q94N/R155S/R180L/S121R/V306I/Y140S/Y195H/Y33H/Y91S); conditions: IEDB value, purified MHC/competitive/radioactivity, read-out: half maximal inhibitory concentration (IC50); cited from earlier work
A*26:01 = A*26:01 (Homo sapiens, UniProt P04439, A114D/A173T/A270S/D101N/D185E/E277Q/E87N/F33Y/G231S/I121R/I218V/K168Q/L180W/L300P/L318F/P208A/P217A/Q86R/Q94H/R138Q/S129P/T187R/T323A/T345S/V100A/V358M); conditions: IEDB value, purified MHC/direct/fluorescence, read-out: dissociation constant KD (~EC50); cited from earlier work
HLA-A*02:03 = HLA-A*02:03 (Homo sapiens, UniProt P04439, A173T/D140Y/D185E/D98H/E277Q/G131W/G231S/I119V/I121R/I166T/I218V/L180W/L300P/L318F/N151K/N90K/P208A/P217A/Q86G/Q94H/R138H/R169H/T345S); experiment: ELISA of small scale MHCI refold (anti-HLA W6/32 capture, anti-B2M detection); assay type: binding; design: inferred from enzymatic biotinylation; made in house; host or cells: Escherichia coli; conditions: for S/N ELISA value: A*02:03, 1.0 μg/mL MHCI, no peptide control as background; for normalized ELISA OD (signal to background): A*02:03, 1 μg/mL MHCI, normalized to no peptide control
B*35:03 [3] = target: T2, B*35:03 (Homo sapiens, UniProt P01889, A329T/A93T/A95T/C349S/D201E/D98Y/E176V/E187L/E204Q/E69T/I218V/K202T/L119I/Q94N/R155S/R180L/S121R/S35A/S48A/T118I/V127L/V306I/V36M/Y140F/Y91F); experiment: as above; assay type: binding; design: inferred from enzymatic biotinylation; made in house; host or cells: Escherichia coli; conditions: for S/N ELISA value: B*35:03, 1.0 μg/mL MHCI, no peptide control as background; for normalized ELISA OD (signal to background): B*35:03, 1 μg/mL MHCI, normalized to no peptide control
Experimental: Recombinant HLA alleles and B2M were over-expressed in E. coli, purified from inclusion bodies, and stored under denaturing conditions (6M Guanidine HCL, 25 mM Tris pH 8) in −80° C. as described above. In a 200 μL reaction, the peptide (0.01 mM, per well), oxidized and reduced glutathione (0.5 mM and 4.0 mM, respectively), recombinant HLA alleles (0.03 mg/mL) and B2M (0.01 mg/mL) were all combined within a 96-well plate. Refold screens were performed with five different peptides for each HLA of interest as described above (Table 3). and the MHCI complex was incubated at 4° C. for 3-5 days to allow refolding. Refolded samples were analyzed by ELISA, and the highest performing peptide was selected for further analysis. All data was analyzed relative to the negative control refold, which was performed in the absence of peptide (labeled NP). HLA-A*02:01 refolded with the CMV pp65 viral epitope was used as a positive control.
Formation of stable conditional MHCI complexes upon refolding with the redesigned peptides were identified by ELISA as described above. […] The original peptide (containing no UV amino acid substitution) was used as a positive control. All peptides used here were purchased from JPT (www.jpt.com) or ELIM Biopharm (www.elimbio.com).
as §1, §2
Two different ELISA assays were evaluated to optimize the sensitivity of the assay. In the first assay format, the refolded MHCI was captured with anti-B2M antibody and detected with pan ABC anti-HLA antibody (clone W6/32). In the second assay format, MHCI was captured with the pan ABC anti-HLA antibody (clone W6/32) and detected with the anti-B2M antibody. […]

B*35:03 [4] = target: T2, B*35:03; conditions: IEDB value, cellular MHC/mass spectrometry; cited from earlier work

IAKSGTSEF (FAAEAQKL) [Peptide C0202-03]
S/N ELISA value (C*02:02 [1]): highest S/N value | normalized ELISA OD (C*02:02 [1]): highest normalized OD value | ligand presentation (C*02:02 [2]): Positive

FAAEAJKL (FAAEA[code J]KL; not fully specified; reading uncertain) [Peptide C0202-03-03]
S/N ELISA value (C*02:02 [1]): highest S/N value | S/N ELISA value (C*02:02 [1]; listed as C0202-02-03): 8 | normalized ELISA OD (C*02:02 [1]): highest normalized ELISA OD value | normalized ELISA OD (C*02:02 [1]; listed as C0202-02-03): 8

YYRYPTGESY [Peptide C1402-03]
Kd (C*14:02): 100 pM

FEFTSFFY [Peptide B1801-01]
IC50 (B*18:01): 100 pM

DTITNVTTM [Peptide A2601-05]
Kd (A*26:01): 4000 pM

FAAJAQKL (FAAXAQKL; not fully specified) [Peptide C0202-03-02]
S/N ELISA value (C*02:02 [1]): 6 | normalized ELISA OD (C*02:02 [1]): 6

DELVDPINY [Peptide B1801-04]
IC50 (B*18:01): 16000 pM

FMYEGDTPL [Peptide C1402-04]
Kd (C*14:02): 100 pM

FAAEAQKJ (FAAEAQKX; not fully specified) [Peptide C0202-03-04]
S/N ELISA value (C*02:02 [1]): very low S/N ELISA values | normalized ELISA OD (C*02:02 [1]): very low normalized ELISA values

SYMSTFPLF [Peptide C0202-05]
ligand presentation (C*02:02 [2]): Positive

DAVPFPISL [Peptide C0202-01]
ligand presentation (C*02:02 [2]): Positive

KIRDLLPVM [Peptide C0202-04]
ligand presentation (C*02:02 [2]): Positive

FJYSDFHFI [Peptide A0203-02-01]
S/N ELISA value (HLA-A*02:03): very low S/N ELISA values | normalized ELISA OD (signal to background) (HLA-A*02:03): very low normalized ELISA values

FAAEAQKL [Peptide C0202-02]
S/N ELISA value (C*02:02 [1]): ~8 | normalized ELISA OD (C*02:02 [1]): ~8 | ligand presentation (C*02:02 [2]): Positive

DVVPMVTQM [Peptide A2601-03]
Kd (A*26:01): 3000 pM

TPAJYFHVL (TPA[code J]YFHVL; not fully specified; reading uncertain) [Peptide B3503-04-02]
S/N ELISA value (B*35:03 [3]): highest S/N value | normalized ELISA OD (signal to background) (B*35:03 [3]): highest normalized ELISA OD value

SYMSTFPLF [Peptide C1402-01]
Kd (C*14:02): 100 pM

APEEHPVLL [Peptide B3503-03]
ligand presentation (B*35:03 [4]): Positive

FJAEAQKL (FXAEAQKL; not fully specified) [Peptide C0202-03-01]
S/N ELISA value (C*02:02 [1]): very low S/N ELISA values | normalized ELISA OD (C*02:02 [1]): very low normalized ELISA values

ETTNWLWAF [Peptide A2601-02]
Kd (A*26:01): 2000 pM

TPANYFHVL [Peptide B3503-04]
ligand presentation (B*35:03 [4]): Positive | S/N ELISA value (B*35:03 [3]): highest OD value | normalized ELISA OD (signal to background) (B*35:03 [3]): highest OD value

FMYJDFHFI [Peptide A0203-02-02]
S/N ELISA value (HLA-A*02:03): highest S/N value | normalized ELISA OD (signal to background) (HLA-A*02:03): highest normalized ELISA OD value

TJANYFHVL (TXANYFHVL; not fully specified) [Peptide B3503-04-01]
S/N ELISA value (B*35:03 [3]): very low S/N ELISA values | normalized ELISA OD (signal to background) (B*35:03 [3]): very low normalized ELISA values

TYLQSLASL [Peptide C1402-02]
Kd (C*14:02): 100 pM

YPYPYPHTAAFSKLIYL [Peptide B3503-05]
ligand presentation (B*35:03 [4]): Positive

IPAEGRVAL [Peptide B3503-02]
ligand presentation (B*35:03 [4]): Positive

Reference: patent publication US20230349903A1, “ASSAYS AND REAGENTS FOR CHARACTERIZATION OF MHCI PEPTIDE BINDING” (priority 2020, published 2023)
